Data taken from patent US20030099631A1.

T1: DNP-Pro-Cha-Abu-Cys(Me)-His-Ala-Lys(N-Me-Abz)-NH2
T1 sequence: PXXCHAK


How the values were obtained:
[1] = test system: T1, DNP-Pro-Cha-Abu-Cys(Me)-His-Ala-Lys(N-Me-Abz)-NH2
[2] = target: casein

Molecule	intensity of fluorescence (excitation 365 nm, emission 460 nm) after cleavage of the substrate [1]	casein hydrolyzing activity (PER assay) [2]
recombinant human liver-derived metalloprotease expressed in Escherichia coli JM109/pNHMB	a fluorescence intensity of 230	–
human liver-derived metalloprotease transiently expressed in COS-7 cells transfected with pTB1921 (culture supernatant, treated with aminophenyl-mercuric … (protein) YLLLGRWRKKHLTFRILNLPSTLPPHTARAALRQAFQDWSNVAPLTFQEVQAGAADIRLSFHGRQSSYCSNTFDGPGRVLAHADIPELGSVHFDEDEFWTEGTYRGVNLRIIAAHEVGHALGLGHSRYSQALMAPVYEGYRPHFKLHPDDVAGIQALYGKKSPVIRDEEEEETELPTVPPVPTEPSPMPDPCSSELDAMMLGPRGKTYAFKGDYVWTVSDSGPGPLFRVSALWEGLPGNLDAAVYSPRTQWIHFFKGDKVWRYINFKMSPGFPKKLNRVEPNLDAALYWPLNQKVFLFKGSGYWQWDELARTDFSSYPKPIKGLFTGVPNQPSAAMSWQDGRVYFFKGKVYWRLNQQLRVEKGYPRNISHNWMHCRPRTIDTTPSGGNTTPSGTGITLDTTLSATETTFEY	–	casein hydrolyzing activity which was not found in the mock culture supernatant was detected in the culture supernatant of COS-7 cells transfected with pTB1921
